According to patent publication US8198236B2, “Methods and compositions for the treatment of cancer” (Washington University, priority 2007, dated 2012):

Legend:
LRP6 [1] = biological target: T1, LRP6 (Homo sapiens, UniProt O75581); assay: Competition for 125I-Mesd binding to cell surface LRP6
T1 construct: expressed in transfected cells; host or cells: human HT1080 cells, retroviral vector pLNCX2
Protocol: To examine whether Mesd binds with high affinity to most members of the LDLR family at the cell surface, we performed cell surface ligand binding experiments with cells stably transduced with LRP6 cDNA. Human HT1080 cells, which express undetectable levels of LRP6, were transduced with a viral vector alone (pLNCX2) or with vector containing LRP6 cDNA (Li, Y., Oncogene 23: 9129-9135, 2004) and used for ^125I-Mesd binding (FIG. 1A). ^125I-Mesd (5 nM) reached maximal binding after 2 hours incubation at 4° C. with LRP6-expressing HT1080 cells (FIG. 1A).
Cells (2×10^5) were seeded into 12-well dishes 1 day prior to assay. Ligand-binding buffer (minimal Eagle's medium containing 0.6% BSA with a different concentration of radioligand, 0.6 ml/well) was added to cell monolayers, in the absence or the presence of 500 nM unlabeled RAP or 500 nM unlabeled Mesd, followed with incubation for 0-4 hours at 4° C. Thereafter, overlying buffer containing unbound ligand was removed, and cell monolayers were washed and lysed in low-SDS lysis buffer (62.5 mM Tris-HCl pH 6.8, 0.2% SDS, 10% v/glycerol) and counted.
We performed binding of 5 nM ^125I-Mesd (5 nM) to cell surface LRP6 in the presence of various concentrations of excess unlabeled RAP or 500 nM unlabeled Mesd (FIG. 8B). RAP inhibited ^125I-Mesd binding in a dose-dependent manner with ˜60% inhibition achieved with 500 nM RAP, whereas the same concentration of unlabeled Mesd inhibited >90% of ^125I-Mesd binding (FIG. 8B). […] The lower affinity of RAP to cell surface LRP6 may also contribute to its lower efficiency in inhibition of Mesd binding.
In FIG. 8A, binding of ^125I-RAP (5 nM) to LRP6-transduced HT1080 cells and the control cells was carried out for 4 hours at 4° C. in the absence (total) or presence of 500 nM RAP, or 500 nM Mesd. In FIG. 8B, binding of^125I-Mesd (5 nM) to LRP6-transduced HT1080 cells was carried out for 2 hours at 4° C. in the absence (total) or presence of various concentrations of RAP or 500 nM Mesd. (C) LRP6-mediated ^125I-Mesd (5 nM) degradation was carried out for 4 hours at 37° C. in the absence or presence of 500 nM Mesd or 500 nM RAP. Values are the means of triple determinations with the s.d. indicated by error bars.
In order to investigate the binding of Mesd polypeptide and an Mesd oligopeptide to either LRP5 or LRP6, binding assays were performed using ^125I-Mesd or ^125I-DKK1 (FIG. 10).

LRP6 [2] = biological target: T1, LRP6; assay: Cell surface Myc-DKK1 binding and immunodetection on LRP6-transduced HT1080 cells; conditions: 1 μM Mesd, immunofluorescence
From the text: Human DKK1 cDNA (clone MGC:868, IMAGE:3508222) was obtained from Invitrogen and subcloned into pcDNA3 (EcoRI/XbaI). To facilitate immunodetection, a c-Myc epitope was included at the C-terminus. The integrity of the subcloned DNA sequence was confirmed by DNA sequencing. Human DKK1-conditioned media were produced by transient transfection of HEK293 cells with pcDNADKK1-Myc in serum-free medium, and allowed to bind to LRP6-transduced HT1080 cells and control cells at room temperature for 60 minutes in the absence or presence of 1 μM Mesd. Cells were then fixed in 4% paraformaldehyde, labeled with anti-Myc monoclonal antibody and detected with Alexa-488 goat anti-mouse IgG. The immunofluorescence was detected by a laser-scanning confocal microscope (Olympus Fluoview 500).
RAP is a receptor antagonist for members of the LDLR family, and is able to inhibit the binding of most known ligands of the LDLR family members. DKK1 is an LRP6-specific ligand and antagonist. […] In these experiments, Serum-free conditioned medium was harvested from HEK293 cells transiently transfected with cDNA for human Myc-DKK1 and allowed to bind to LRP6-transduced HT1080 cells (B,C) and control cells (A) in the absence (A,B) or presence (C) of 1 μM Mesd. Cell-surface-bound Myc-tagged DKK proteins were fixed and detected by immunofluorescence staining with anti-Myc antibody. […]

T1 sequence (O75581 20-1613): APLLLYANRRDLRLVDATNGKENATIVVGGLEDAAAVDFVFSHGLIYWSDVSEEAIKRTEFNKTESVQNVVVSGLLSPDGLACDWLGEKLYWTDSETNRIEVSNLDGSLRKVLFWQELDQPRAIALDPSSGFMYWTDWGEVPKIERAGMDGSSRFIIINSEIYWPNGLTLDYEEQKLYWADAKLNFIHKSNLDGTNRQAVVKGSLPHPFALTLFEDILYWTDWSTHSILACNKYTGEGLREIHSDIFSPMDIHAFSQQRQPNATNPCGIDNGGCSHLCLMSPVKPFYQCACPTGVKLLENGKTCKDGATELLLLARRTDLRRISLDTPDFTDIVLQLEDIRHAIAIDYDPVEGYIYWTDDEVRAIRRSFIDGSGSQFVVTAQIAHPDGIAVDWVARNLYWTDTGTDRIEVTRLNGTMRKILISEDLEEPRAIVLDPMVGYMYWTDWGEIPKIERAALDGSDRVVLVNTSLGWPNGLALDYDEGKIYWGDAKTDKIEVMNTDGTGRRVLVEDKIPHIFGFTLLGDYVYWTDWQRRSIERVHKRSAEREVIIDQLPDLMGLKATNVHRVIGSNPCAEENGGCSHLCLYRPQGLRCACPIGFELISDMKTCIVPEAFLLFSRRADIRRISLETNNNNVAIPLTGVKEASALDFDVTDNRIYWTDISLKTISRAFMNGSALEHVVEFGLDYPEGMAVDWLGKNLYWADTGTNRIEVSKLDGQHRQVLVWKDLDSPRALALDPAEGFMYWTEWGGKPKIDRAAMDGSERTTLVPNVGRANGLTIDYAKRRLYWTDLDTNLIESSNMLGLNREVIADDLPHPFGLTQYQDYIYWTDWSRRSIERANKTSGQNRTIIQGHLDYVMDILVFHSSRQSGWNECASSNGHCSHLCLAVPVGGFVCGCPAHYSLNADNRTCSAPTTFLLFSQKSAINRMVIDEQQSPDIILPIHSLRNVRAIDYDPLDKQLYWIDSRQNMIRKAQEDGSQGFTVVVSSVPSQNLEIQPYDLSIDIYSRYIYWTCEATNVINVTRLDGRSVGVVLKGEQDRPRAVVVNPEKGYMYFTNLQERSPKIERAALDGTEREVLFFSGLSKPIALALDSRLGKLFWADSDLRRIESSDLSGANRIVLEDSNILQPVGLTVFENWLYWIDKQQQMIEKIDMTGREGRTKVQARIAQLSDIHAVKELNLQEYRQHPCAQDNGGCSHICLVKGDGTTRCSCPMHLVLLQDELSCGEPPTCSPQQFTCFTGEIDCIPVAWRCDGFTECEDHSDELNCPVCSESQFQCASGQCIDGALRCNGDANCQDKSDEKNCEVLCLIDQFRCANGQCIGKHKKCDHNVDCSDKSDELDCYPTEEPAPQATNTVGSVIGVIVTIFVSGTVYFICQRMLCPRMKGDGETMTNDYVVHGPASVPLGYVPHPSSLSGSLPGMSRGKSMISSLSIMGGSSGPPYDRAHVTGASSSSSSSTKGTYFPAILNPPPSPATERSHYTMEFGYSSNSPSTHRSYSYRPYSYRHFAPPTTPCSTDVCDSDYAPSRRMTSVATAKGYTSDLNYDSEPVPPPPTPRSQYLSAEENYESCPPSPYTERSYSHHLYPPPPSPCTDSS

B1: Mesd: Recombinant full-length mouse Mesd expressed in E. coli, N-terminal polyhistidine tail, lacking the signal peptide (protein)
chain: ADTPGEATPPPRKKKDIRDYNDADMARLLEQWEKDDDIEEGDLPEHKRPSAPIDFSKLDPGKPESILKMTKKGKTLMMFVTVSGNPTEKETEEITSLWQGSLFNANYDVQRFIVGSDRAIFMLRDGSYAWEIKDFLVSQDRCAEVTLEGQMYPGKGGGSKEKNKTKPEKAKKKEGDRKPRASKEDNRAGSRREDL
modifications: left off: small tags and cut ends
notes: Recombinant full-length mouse Mesd expressed in E. coli, N-terminal polyhistidine tail, lacking the signal peptide
Inhibition of 125I-Mesd binding to cell surface LRP6 (LRP6 [1]; 500 nM unlabeled competitor, 125I-Mesd 5 nM, 2 hours at 4° C.): > 90%
Effect of excess unlabeled protein on 125I-Mesd binding (LRP6 [1]; 500 nM unlabeled, 125I-Mesd 5 nM, 4° C.): completely eliminated this binding
Reduction of binding of 125I-Mesd to LRP6 (LRP6 [1]; FIG. 10C, compared with LRP5): even greater reduction
Binding of Myc-DKK1 to LRP6 at the cell surface (LRP6 [2]): completely blocked
